This is an account of results in patent US20240344124, “Quantum Dot-Enrichment of CRISPR-Associated (Cas) Proteins for Environmental RNA Enrichment” (The Government of the United States of America, as …, published 2024).

The data set deals with T1, dLwaCas13a (LwaC2c2 R474A/R1046A double mutant); the text does not say whether the double or the quad mutant … (Leptotrichia wadei).
T1 chain: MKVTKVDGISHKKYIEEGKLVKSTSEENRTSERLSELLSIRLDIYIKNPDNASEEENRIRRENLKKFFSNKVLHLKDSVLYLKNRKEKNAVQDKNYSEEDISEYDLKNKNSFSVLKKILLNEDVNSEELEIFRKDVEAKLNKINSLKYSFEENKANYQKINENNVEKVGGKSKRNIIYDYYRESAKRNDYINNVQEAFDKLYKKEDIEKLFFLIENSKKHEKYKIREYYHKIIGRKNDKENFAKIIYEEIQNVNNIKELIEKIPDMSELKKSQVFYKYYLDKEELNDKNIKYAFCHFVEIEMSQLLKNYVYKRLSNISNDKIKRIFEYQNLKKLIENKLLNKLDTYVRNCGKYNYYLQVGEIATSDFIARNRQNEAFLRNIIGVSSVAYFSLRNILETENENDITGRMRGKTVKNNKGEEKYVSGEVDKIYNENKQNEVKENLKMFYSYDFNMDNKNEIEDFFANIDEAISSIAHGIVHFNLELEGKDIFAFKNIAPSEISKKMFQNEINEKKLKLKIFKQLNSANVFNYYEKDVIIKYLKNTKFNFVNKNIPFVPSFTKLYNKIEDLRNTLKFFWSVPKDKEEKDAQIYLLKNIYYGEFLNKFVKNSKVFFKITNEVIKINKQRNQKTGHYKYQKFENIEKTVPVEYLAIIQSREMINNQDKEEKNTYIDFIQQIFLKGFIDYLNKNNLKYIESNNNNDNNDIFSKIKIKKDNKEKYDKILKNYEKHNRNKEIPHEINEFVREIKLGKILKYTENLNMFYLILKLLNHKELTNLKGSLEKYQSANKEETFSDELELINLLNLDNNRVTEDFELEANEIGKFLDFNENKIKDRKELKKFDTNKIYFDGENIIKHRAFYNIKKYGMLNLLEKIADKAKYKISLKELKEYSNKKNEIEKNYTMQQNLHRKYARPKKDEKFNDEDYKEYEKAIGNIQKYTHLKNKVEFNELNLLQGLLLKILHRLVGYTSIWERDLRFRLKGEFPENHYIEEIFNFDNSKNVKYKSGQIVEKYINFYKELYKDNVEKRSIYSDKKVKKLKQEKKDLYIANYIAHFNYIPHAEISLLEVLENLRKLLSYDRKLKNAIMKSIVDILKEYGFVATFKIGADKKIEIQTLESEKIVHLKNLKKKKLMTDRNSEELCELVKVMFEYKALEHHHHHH
In words: pulldown; […]; 50 mM Tris pH 8, NaCl, 10 mM MgCl2, 37 C; […]. The note with it: tags: polyhistidine tag; GenScript.

B1: cr7 crRNA ; shortened lcrV target RNA (237 nt) (ssRNA ; ssRNA)
RNA 1: GGGGAUUUAGACUACCCCAAAAACGAAGGGGACUAAAACAAUAUCUAUAUUUUUAUCUUUGACUAAC
RNA 2: AUUGAGGAUCUAGAAAAAGUUAGGGUGGAACAACUUACUGGUCAUGGUUCUUCAGUUUUAGAAGAAUUGGUUCAGUUAGUCAAAGAUAAAAAUAUAGAUAUUUCCAUUAAAUAUGAUCCCAGAAAAGAUUCGGAGGUUUUUGCCAAUAGAGUAAUUACUGAUGAUAUCGAAUUGCUCAAGAAAAUCCUAGCUUAUUUUCUACCCGAGGAUGCCAUUCUUAAAGGCGGUCAUUAUGAC
Turning to B1, the binding result is “binds”.
